The source of these data is PMC8809517, “Cofactor-independent RNA editing by a synthetic S-type PPR protein”.

Common to all, as to test: high-throughput RNA pulldown from lysate on Ni-NTA beads; HRP: 50 mM Tris pH 8, 150 mM NaCl, 1 mM beta-mercaptoethanol, 50 ug/ml BSA, 3 ug/ml yeast RNA, 0.5% heparin; ITC and FP: Tris pH 8, 200 mM KCl, 5% glycerol; MST: 50 mM Tris pH 8, 200 mM NaCl, 1 mM DTT, BSA, heparin, 0.05% Tween 20
Settings in all cases: tags: N-terminal His-eGFP

Data set [1] has as its target T1, GFP-9S library array, motif 4 ND N98D;D124Y (synthetic construct, N98D;D124Y).
T1 chain: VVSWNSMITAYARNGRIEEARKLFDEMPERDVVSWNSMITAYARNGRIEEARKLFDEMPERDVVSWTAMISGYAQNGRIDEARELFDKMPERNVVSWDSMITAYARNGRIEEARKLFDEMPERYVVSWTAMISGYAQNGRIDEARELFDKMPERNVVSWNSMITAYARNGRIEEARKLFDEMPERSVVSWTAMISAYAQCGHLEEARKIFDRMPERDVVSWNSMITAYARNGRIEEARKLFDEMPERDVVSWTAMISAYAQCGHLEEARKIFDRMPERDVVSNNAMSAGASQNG

Data set [2] concerns the target T2, GFP-9S library array, motif 4 ND N98I;D124C (synthetic construct, N98I;D124C).
T2 chain: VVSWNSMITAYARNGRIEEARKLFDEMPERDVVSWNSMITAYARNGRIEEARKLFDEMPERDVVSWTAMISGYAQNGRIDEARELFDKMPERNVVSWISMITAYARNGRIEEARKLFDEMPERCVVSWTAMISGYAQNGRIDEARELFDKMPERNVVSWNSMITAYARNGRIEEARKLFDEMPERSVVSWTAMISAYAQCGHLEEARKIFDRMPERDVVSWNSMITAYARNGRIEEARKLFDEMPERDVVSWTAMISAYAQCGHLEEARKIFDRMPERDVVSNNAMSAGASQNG

Data set [3] concerns the target T3, GFP-9S library array, motif 4 ND N98S;D124M (synthetic construct, N98S;D124M).
T3 chain: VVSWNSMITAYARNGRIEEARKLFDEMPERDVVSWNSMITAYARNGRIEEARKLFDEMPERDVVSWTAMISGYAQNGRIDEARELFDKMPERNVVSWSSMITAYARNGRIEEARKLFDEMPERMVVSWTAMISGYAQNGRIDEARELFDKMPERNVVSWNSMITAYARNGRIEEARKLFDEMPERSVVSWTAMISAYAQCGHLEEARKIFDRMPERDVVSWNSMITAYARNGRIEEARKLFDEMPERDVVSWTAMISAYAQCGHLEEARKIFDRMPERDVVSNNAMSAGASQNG

Data set [4] deals with T4, GFP-9S library array, motif 4 ND N98D;D124Q (synthetic construct, N98D;D124Q).
T4 chain: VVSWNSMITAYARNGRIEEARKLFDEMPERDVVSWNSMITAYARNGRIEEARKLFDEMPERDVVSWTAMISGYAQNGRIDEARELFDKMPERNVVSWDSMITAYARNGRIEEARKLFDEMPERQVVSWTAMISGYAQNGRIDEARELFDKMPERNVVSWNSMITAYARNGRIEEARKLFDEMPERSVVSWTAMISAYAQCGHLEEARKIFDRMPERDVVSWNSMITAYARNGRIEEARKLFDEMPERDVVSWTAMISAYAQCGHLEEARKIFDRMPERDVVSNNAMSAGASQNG

For data set [5], the target named is T5, GFP-9S library array, motif 4 ND N98M;D124S (synthetic construct, N98M;D124S).
T5 chain: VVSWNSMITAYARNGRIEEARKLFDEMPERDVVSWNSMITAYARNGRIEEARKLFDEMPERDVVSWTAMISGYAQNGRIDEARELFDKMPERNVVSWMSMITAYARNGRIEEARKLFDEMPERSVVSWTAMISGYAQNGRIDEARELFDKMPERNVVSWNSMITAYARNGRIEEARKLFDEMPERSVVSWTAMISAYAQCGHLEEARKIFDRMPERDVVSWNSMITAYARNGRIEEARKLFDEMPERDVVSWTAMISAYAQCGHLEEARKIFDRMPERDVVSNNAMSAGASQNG

On to AUUAUACGUGA (ssRNA) [IR-rpoA-U], for which the Kd in data set [1] (label: 5' IRDye 800CW) was determined as 266 nM; in data set [2] (label: 5' IRDye 800CW), 32.9 nM; in data set [3] (label: 5' IRDye 800CW), 160 nM; in data set [4] (label: 5' IRDye 800CW), 803 nM; in data set [5] (label: 5' IRDye 800CW), 48.4 nM.

In the case of AUUAGACGUGA (ssRNA) [Cy5-rpoA-G], the Kd in data set [1] (label: 5' Cy5) was 246 nM; in data set [2] (label: 5' Cy5), 90.6 nM; in data set [3] (label: 5' Cy5), 183 nM; in data set [4] (label: 5' Cy5) it was 270 nM; in data set [5] (label: 5' Cy5) it was 73.1 nM.

Consider AUUAAACGUGA (ssRNA) [IR-rpoA-A], for which the Kd in data set [1] (label: 5' IRDye 800CW) is 1180 nM; in data set [2] (label: 5' IRDye 800CW), 42.5 nM; in data set [3] (label: 5' IRDye 800CW), 369 nM; in data set [4] (label: 5' IRDye 800CW), 973 nM; in data set [5] (label: 5' IRDye 800CW), 65.9 nM.

On to AUUACACGUGA (ssRNA) [Cy5-rpoA], for which the Kd in data set [1] (label: 5' Cy5) stood at 153 nM; in data set [2] (label: 5' Cy5), 182 nM; in data set [3] (label: 5' Cy5), 120 nM; in data set [4] (label: 5' Cy5), 369 nM; in data set [5] (label: 5' Cy5), 50.4 nM.
